Columns and labels:
HLA-A*02:03 [1] = assay: IEDB peptide-MHC binding, cellular MHC/competitive/fluorescence; ≥ and ≤ were set here for values at or beyond the usual limits of such assays
HLA-A*02:02 [2] = assay: as above
HLA-A*03:01 [3] = assay: as above; conditions: source organism: Hepatitis B virus
HLA-A*02:01 = assay: as above
HLA-A*31:01 [4] = assay: as above; conditions: source organism: Hepatitis B virus
HLA-A*11:01 = assay: as above; conditions: source organism: Hepatitis B virus
HLA-A*68:02 [5] = assay: as above
HLA-A*68:01 = assay: as above; conditions: source organism: Hepatitis B virus
HLA-A*02:06 [6] = assay: IEDB peptide-MHC binding, purified MHC/competitive/radioactivity; ≥ and ≤ were set here for values at or beyond the usual limits of such assays; conditions: source organism: Hepatitis B virus
HLA-A*02:03 [7] = assay: as above; conditions: source organism: Hepatitis B virus
HLA-A*02:02 [8] = assay: as above; conditions: source organism: Hepatitis B virus
HLA-A*31:01 [9] = assay: as above; conditions: source organism: Hepatitis B virus
HLA-A*02:06 [10] = assay: IEDB peptide-MHC binding, cellular MHC/competitive/fluorescence; ≥ and ≤ were set here for values at or beyond the usual limits of such assays
HLA-A*03:01 [11] = assay: IEDB peptide-MHC binding, purified MHC/competitive/radioactivity; ≥ and ≤ were set here for values at or beyond the usual limits of such assays; conditions: source organism: Hepatitis B virus
HLA-A*68:02 [12] = assay: as above; conditions: source organism: Hepatitis B virus
[13] = source organism: Hepatitis B virus
[14] = source organism: Vaccinia virus WR
[15] = source organism: Influenza A virus

Row | Sequence | IC50 (HLA-A*02:03 [1]; [13]) | IC50 (HLA-A*03:01 [3]) | IC50 (HLA-A*31:01 [4]) | IC50 (HLA-A*11:01) | IC50 (HLA-A*68:02 [5]; [13]) | IC50 (HLA-A*68:01) | IC50 (HLA-A*02:06 [6]) | IC50 (HLA-A*02:02 [8]) | further results
1 | KVGAGAFGL | 34.7 µM | 25 µM | 12.6 µM | ≥ 70 µM | ≥ 70 µM | ≥ 70 µM | 1.14 µM |  | IC50 (HLA-A*02:02 [2]; [13]): 9.12 µM; IC50 (HLA-A*02:01; [13]): 11 µM
2 | MMWYWGPSL |  |  |  |  |  | ≥ 70 µM |  | 0.137 µM | IC50 (HLA-A*02:03 [7]): 0.054 µM; IC50 (HLA-A*31:01 [9]): 0.131 µM
3 | RILTIPQSL | 9.77 µM | ≥ 70 µM | 36.9 µM | ≥ 70 µM | ≥ 70 µM | ≥ 70 µM |  |  | IC50 (HLA-A*02:02 [2]; [13]): 6.45 µM; IC50 (HLA-A*02:01; [13]): 39.1 µM; IC50 (HLA-A*02:06 [10]; [13]): 5.95 µM
4 | NLSWLSLDV |  | 9.22 µM | 15.4 µM | ≥ 70 µM | 28.4 µM | ≥ 70 µM | 2.74 µM | 0.069 µM | IC50 (HLA-A*02:03 [7]): 0.05 µM
5 | SILSPFLPL |  |  |  |  |  | ≥ 70 µM |  |  | 
6 | LLVLLDYQGM | 5.58 µM | 19.5 µM | 7.26 µM | ≥ 70 µM | 61.1 µM | ≥ 70 µM | 1.81 µM | 0.799 µM | 
7 | FLLSLGIHL |  |  | 6.79 µM |  | 10.5 µM | 15.7 µM |  |  | IC50 (HLA-A*03:01 [11]): 2.53 µM
8 | SMYPSCCCT | 5.52 µM | ≥ 70 µM | 68.4 µM | ≥ 70 µM | ≥ 70 µM | ≥ 70 µM |  |  | IC50 (HLA-A*02:02 [2]; [13]): 10.3 µM; IC50 (HLA-A*02:01; [13]): 6.43 µM; IC50 (HLA-A*02:06 [10]; [13]): 9.31 µM
9 | WMMWYWGPSL |  | 15.4 µM |  | ≥ 70 µM |  | ≥ 70 µM | 0.305 µM | 0.354 µM | IC50 (HLA-A*02:03 [7]): 0.068 µM; IC50 (HLA-A*31:01 [9]): 0.784 µM; IC50 (HLA-A*68:02 [12]): 3.59 µM
10 | PTPKKMNIVT |  |  |  |  |  |  |  |  | IC50 (HLA-A*02:03 [1]; [14]): 55.7 µM; IC50 (HLA-A*02:02 [2]; [14]): 65.8 µM; IC50 (HLA-A*02:01; [14]): ≥ 70 µM; IC50 (HLA-A*68:02 [5]; [14]): ≥ 70 µM; IC50 (HLA-A*02:06 [10]; [14]): ≥ 70 µM
11 | SAAFEDLRL |  |  |  |  |  |  |  |  | IC50 (HLA-A*02:03 [1]; [15]): 9.24 µM; IC50 (HLA-A*02:02 [2]; [15]): 15.4 µM; IC50 (HLA-A*02:01; [15]): ≥ 70 µM; IC50 (HLA-A*68:02 [5]; [15]): 27.1 µM; IC50 (HLA-A*02:06 [10]; [15]): 30.6 µM
12 | GTKGKLYIAL |  |  |  |  |  |  |  |  | IC50 (HLA-A*02:03 [1]; [14]): 7.84 µM; IC50 (HLA-A*02:02 [2]; [14]): 9.07 µM; IC50 (HLA-A*02:01; [14]): 16.6 µM; IC50 (HLA-A*68:02 [5]; [14]): 7.51 µM; IC50 (HLA-A*02:06 [10]; [14]): 37.4 µM
